Where a chain is given by its changes, count along the chain named. Names and notes keep the numbering of the source.
What was measured:
[1] = molecular target: GST-FliJ (Salmonella enterica), P0A1K1; experiment: BLI; GST-FliJ immobilised on an anti-GST sensor tip (BLItz), His-FlhAC or its variants in solution at various concentrations; kinetic buffer PBS pH 7.4, 0.1% BSA, 0.002% Tween-20; 25 °C; wild type fitted with a two-state reaction model, FlhAC-EWD and FlhAC-ΔL with the Hill equation; n = 3; conditions: remark: other sources report otherwise
Sequence of GST-FliJ (Salmonella enterica), P0A1K1 (P0A1K1 whole entry): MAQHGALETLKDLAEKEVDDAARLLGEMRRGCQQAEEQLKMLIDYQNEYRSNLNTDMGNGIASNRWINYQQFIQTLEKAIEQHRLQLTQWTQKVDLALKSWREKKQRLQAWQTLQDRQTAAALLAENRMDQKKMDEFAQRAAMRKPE

[2] = molecular target: T1, GST-FlgN (Salmonella enterica), P0A1J7; experiment: BLI; GST-FlgN immobilised on an anti-GST sensor tip (BLItz), His-FlhAC or its variants in solution at various concentrations; kinetic buffer PBS pH 7.4, 0.1% BSA, 0.002% Tween-20; 25 °C; FlhAC-ED and FlhAC-EWD fitted with a two-state reaction model, FlhAC-ΔL with a heterogeneous reaction model; n = 3; conditions: remark: other sources report otherwise
T1 chain: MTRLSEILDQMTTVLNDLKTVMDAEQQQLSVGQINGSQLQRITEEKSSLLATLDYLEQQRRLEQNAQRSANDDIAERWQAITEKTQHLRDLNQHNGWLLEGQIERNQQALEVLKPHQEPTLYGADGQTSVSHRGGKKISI

[3] = molecular target: T2, His-FlhAC (C-terminal cytoplasmic domain of FlhA, residues 328–692), wild type (Salmonella enterica, UniProt P40729 328-692); experiment: as above; conditions: both partners purified
T2 construct: also called wild-type FlhAC; WT
T2 sequence: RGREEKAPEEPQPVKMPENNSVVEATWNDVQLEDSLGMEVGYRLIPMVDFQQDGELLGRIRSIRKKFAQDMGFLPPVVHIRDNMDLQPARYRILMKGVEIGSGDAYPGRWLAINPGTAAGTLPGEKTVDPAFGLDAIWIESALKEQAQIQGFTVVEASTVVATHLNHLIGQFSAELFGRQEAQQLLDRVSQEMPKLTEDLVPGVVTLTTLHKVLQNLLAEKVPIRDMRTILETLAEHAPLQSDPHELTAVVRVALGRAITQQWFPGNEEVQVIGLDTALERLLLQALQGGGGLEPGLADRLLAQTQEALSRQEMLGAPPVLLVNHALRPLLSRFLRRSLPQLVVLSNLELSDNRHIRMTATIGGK

[4] = molecular target: T3, His-FlhAC(E351A/W354A/D356A) (Salmonella enterica, UniProt P40729 328-692, E351A | W354A | D356A); experiment: as above; conditions: both partners purified
T3 construct: also called FlhAC-EWD; His-FlhAC-EWD
T3 sequence: T2 sequence with E24A, W27A, D29A

[5] = molecular target: T4, His-FlhAC lacking FlhAL (residues 328–361) (Salmonella enterica, UniProt P40729 362-692); experiment: as above; conditions: both partners purified
T4 construct: also called FlhAC-ΔL; His-FlhAC-ΔL
T4 sequence: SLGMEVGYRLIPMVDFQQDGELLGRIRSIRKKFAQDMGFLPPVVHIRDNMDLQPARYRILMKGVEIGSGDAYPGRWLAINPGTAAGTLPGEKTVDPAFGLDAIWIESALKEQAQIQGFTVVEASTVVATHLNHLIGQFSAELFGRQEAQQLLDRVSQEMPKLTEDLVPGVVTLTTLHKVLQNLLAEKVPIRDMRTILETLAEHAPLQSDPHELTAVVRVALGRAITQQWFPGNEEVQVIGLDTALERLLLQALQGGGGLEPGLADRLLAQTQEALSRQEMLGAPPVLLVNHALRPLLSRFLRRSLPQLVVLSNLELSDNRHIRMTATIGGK

B1: His-FlhAC lacking FlhAL (residues 328–361), P40729 362-692 (domain or fragment)
chain: T4 sequence
- Kd [1]: 49 µM

B2: His-FlhAC (C-terminal cytoplasmic domain of FlhA, residues 328–692), wild type, P40729 328-692 (domain or fragment)
chain: T2 sequence
- Kd [1]: 1.36 µM

B3: His-FlhAC(E351A/W354A/D356A), P40729 328-692 (domain or fragment)
chain: T2 sequence with E24A, W27A, D29A
- Kd [1]: 60.7 µM

B4: His-FlhAC(E351A/D356A), P40729 328-692 (domain or fragment)
chain: T2 sequence with E24A, D29A
- Kd [2]: 37.8 µM

B5: GST-FlgN (natural protein)
chain: T1 chain
notes: also called pMMGN101
- Kd [3]: 0.095 µM
- koff [3]: ~0.000781 s⁻¹
- kon [3]: ~8230 M⁻¹ s⁻¹
- Kd [4]: 31.2 µM
- Kd [5]: 3.1 µM
